# Results as given in patent US20260184815A1 (published 2026).
# B1: M10-A03 (Fab, V domains shown)
# VH: EVQLLESGGGLVQPGGSLRLSCAASGFTFSPYPMQWVRQAPGKGLEWVSSISSSGGMTEYADSVKGRFTISRDNSKNTLYLQMNSLRAEDTAVYYCARDDYGGKGGAFDIWGQGTMVTVSS
# VL: DIQMTQSPSSLSASVGDRVTITCRASQRISFYLNWFQQKPGKAPNLLIYGASSLQSGVPSRFSGSGSGTDFTLTISSLQPKDFGTYYCQQTFSTPNTFGQGTKLEIK
# notes: HC as printed runs into CH1
# B2: M9-C10 (Fab, V domains shown)
# VH: EVQLLESGGGLVQPGGSLRLSCAASGFTFSLYPMQWVRQAPGKGLEWVSSIGSSGGMTFYADSVKGRFTISRDNSKNTLYLQMNSLRAEDTAVYYCTREVGAAGFAFDIWGQGTMVTVSS
# VL: DIQMTQSPSSLSASVGDRVTITCRASQGISSYLNWYQQKPGNAPNLLIYGASSLQSGVPSRFSGSGSGTDFTLTISSLQPEDFATYYCQESYSTLFTFGPGTTVEIK
# notes: HC as printed runs into CH1
# B3: M11-E01 (Fab, V domains shown)
# VH: EVQLLESGGGLVQPGGSLRLSCAASGFTFSTYEMYWVRQAPGKGLEWVSGIGSSGGMTMYADSVKGRFTISRDNSKNTLYLQMNSLRAEDTAMYYCAREQPGIAALQFWGQGTLVTVSS
# VL: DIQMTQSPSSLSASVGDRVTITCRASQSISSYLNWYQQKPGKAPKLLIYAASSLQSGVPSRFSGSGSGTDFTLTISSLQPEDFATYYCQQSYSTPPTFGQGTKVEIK
# notes: HC as printed runs into CH1
# B4: M9-E04 (Fab, V domains shown)
# VH: EVQLLESGGGLVQPGGSLRLSCAASGFTFSEYDMMWVRQAPGKGLEWVSSIGSSGGMTYYADSVKGRFTISRDNSKNTLYLQMNSLRAEDTAVYYCARDQVAAAAIDYWGQGTLVTVSS
# VL: DIQMIQSPSSLSASVGDRVTITCRASQSISGYLNWYQQRSGKAPKLLIFAASNLQTGVPSRFSGSGSGTDFTLTINNLQPEDFATYYCQQSHTPPKTFGPGTKVDIK
# notes: HC as printed runs into CH1
# B5: M9-F08 (Fab, V domains shown)
# VH: EVQLLESGGGLVQPGGSLRLSCAASGFTFSPYAMTWVRQAPGKGLEWVSVIYPSGGFTDYADSVKGRFTISRDNSKNTLYLQMNSLRAEDTAMYYCARASGSYLDAFDIWGQGTMVTVSS
# VL: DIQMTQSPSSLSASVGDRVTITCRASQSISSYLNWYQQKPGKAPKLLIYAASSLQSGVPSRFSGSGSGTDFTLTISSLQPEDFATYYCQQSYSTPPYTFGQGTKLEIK
# notes: HC as printed runs into CH1; LC amber q (QMTqSPS) written as Q
# B6: M9-G08 (Fab, V domains shown)
# VH: EVQLLESGGGLVQPGGSLRLSCAASGFTFSYYTMLWVRQAPGKGLEWVSSIYPSGGFTMYADSVKGRFTISRDNSKNTLYLQMNSLRAEDTAVYYCARVDTAMAMIDYWGQGTLVTVSS
# VL: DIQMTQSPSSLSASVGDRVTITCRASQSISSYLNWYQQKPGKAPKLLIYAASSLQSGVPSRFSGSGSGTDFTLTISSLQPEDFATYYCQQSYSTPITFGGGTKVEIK
# notes: HC as printed runs into CH1
# B7: M10-C11 (Fab, V domains shown)
# VH: EVQLLESGGGLVQPGGSLRLSCAASGFTFSMYPMMWVRQAPGKGLEWVSYISPSGGMTDYADSVKGRFTISRDNSKNTLYLQMNSLRAEDMAVYYCARVAGSSDAFDIWGQGTMVTVSS
# VL: DIQMTQSPSSLSASVGDRVTITCRASQSISIYLNWYQQKPEKAPKLLIFAASTLQSGVPSRFSGSGSGTDFTLTISNLQPEDFATYYCQQSHSIPPTFGLGTKVEVK
# notes: HC as printed runs into CH1
# B8: M11-E04 (Fab, V domains shown)
# VH: EVQLLESGGGLVQPGGSLRLSCAASGFTFSMYHMNWVRQAPGKGLEWVSGIVSSGGVTFYADSVKGRFTISRDNSKNTLYLQMNSLRAEDTAVYYCARITTVTTGGAFDIWGQGTMVTVSS
# VL: DIQMTQSPSSLSASVGDRVTITCRASQSISIYLTWYQHRPGKAPNLLIYGAATLQTGVPSRFSGSGSGTDFTLTIRGLQPEDFATYYCQQTFSLPRTFGQGTKLEIK
# notes: HC as printed runs into CH1
# B9: M10-E06 (Fab, V domains shown)
# VH: EVQLLESGGGLVQPGGSLRLSCAASGFTFSLYRMFWVRQAPGKGLEWVSSIWSSGGPTMYADSVKGRFTISRDNSKNTLYLQMNSLRAEDTAVYYCAREYPSTYYFDYWGQGTLVTVSS
# VL: DIQMTQSPSSLSASVGDRVTITCRASQSISTYLNWYQQKPGKAPKLLIYGASSLQSGVPSRFSGSGSGTDFTLTISSLQPEDFTIYYCQQSYSDPYTFGQGTKLDIK
# notes: HC as printed runs into CH1
# B10: M11-A10 (Fab, V domains shown)
# VH: EVQLLESGGGLVQPGGSLRLSCAASGFTFSNYWMMWVRQAPGKGLEWVSGIGSSGGFTSYADSVKGRFTISRDNSKNTLYLQMNSLRAEDTAVYYCAKGSYSDYGVFESWGQGTLVTVSS
# VL: DIQMTQSPSSLSASVGDRVAITCRASQSIDTYLNWYQQKPGKAPKLLIYDASNLEIGVPSRFSGSGSGTDFTFIINSLQPEDVATYYCQHYLYAPYSFGQGTKLEIK
# notes: HC as printed runs into CH1; also called Ml1-A10
# B11: M9-F10 (Fab, V domains shown)
# VH: EVQLLESGGGLVQPGGSLRLSCAASGFTFSDYDMEWVRQAPGKGLEWVSSISPSGGSTIYADSVKGRFTISRDNSKNTLYLQMNSLRAEDTAVYYCARQGLLTAFDIWGQGTMVTVSS
# VL: DIQMTQSPSSLSASVGDRVTITCRASQSINTYLNWYQQKPGKAPKVLIHAASTLESGVPSRFSGSGSGTDFTLTISSLQPEDFATYYCQQSYSTPYTFGQGTKLEVR
# notes: HC as printed runs into CH1
# B12: M10-B09 (Fab, V domains shown)
# VH: EVQLLESGGGLVQPGGSLRLSCAASGFTFSWYEMSWVRQAPGKGLEWVSRIWPSGGVTMYADSVKGRFTISRDNSKNTLYLQMNSLRAEDTAVYYCTRTSITTVGMDVWGQGTTVTVSS
# VL: DIQMTQSPSSLSASVGDGVTITCRASQSISTYLNWYQQRPGKAPKLLIYGASSLQSGVPSRFSGSGSGTDFTLTISSLQREDFATYYCQQSFSTPWTFGQGTRVEIK
# notes: HC as printed runs into CH1; HC amber q (LqMNS) written as Q
# B13: M10-A12 (Fab, V domains shown)
# VH: EVQLLESGGGLVQPGGSLRLSCAASGFTFSLYLMHWVRQAPGKGLEWVSSIYSSGGFTTYADSVKGRFTISRDNSKNTLYLQMNSLRAEDTAVYYCARDTDYGMDVWGQGTTVTVSS
# VL: DIQMTQSPLSLSAFVGDRVTITCRASRDISVYLNWYQLKSGKAPKLLIYGASSLQSGVPSRFSGSGSGTDFTLTITSLQPEDFATYYCQQSYSIPFTFGGGTKVETK
# notes: HC as printed runs into CH1
# B14: M10-G09 (Fab, V domains shown)
# VH: EVQLLESGGGLVQPGGSLRLSCAASGFTFSQYGMQWVRQAPGKGLEWVSSIRSSGGATRYADSVKGRFTISRDNSKNTLYLQMNSLRAEDTAVYYCARDGYYDSSGYPDYWGQGTLVTVSS
# VL: DIQMTQSPSSLSASVGDSVTITCRASQSISGYINWYQQKAGKAPKLLIYAASSLQSGVPSRFSGSGSGTHFTLTISSLQPEDFATYYCQQYVSYPFTFGPGTKVDIK
# notes: HC as printed runs into CH1
# B15: M11-E06 (Fab, V domains shown)
# VH: EVQLLESGGGLVQPGGSLRLSCAASGFTFSQYAMHWVRQAPGKGLEWVSSIYPSGGFTLYADSVKGRFTISRDNSKNTLYLQMNSLRAEDTAMYYCARGGWLAGGELLNWGQGTLVTVSS
# VL: DIQMTQSPSSLSASIGDRVTISCRASRGIGTYLNWYQQHAGKAPKLLIRAASSLETGVPPRFSGSGSGTDFTLTISSLQSDDFATYYCQESFTNVYNFGQGTKLEIK
# notes: HC as printed runs into CH1
# B16: M9-H04 (Fab, V domains shown)
# VH: EVQLLESGGGLVQPGGSLRLSCAASGFTFSAYTMWWVRQAPGKGLEWVSSIWPSGGSTFYADSVKGRFTISRDNSKNTLYLQMNSLRAEDTAVYYCARTYDSSAGEVDYWGQGTLVTVSS
# VL: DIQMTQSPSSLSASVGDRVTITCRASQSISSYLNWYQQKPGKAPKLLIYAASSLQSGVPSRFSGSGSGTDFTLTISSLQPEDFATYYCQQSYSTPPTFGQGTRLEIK
# notes: HC as printed runs into CH1
# B17: M9-D08 (Fab, V domains shown)
# VH: EVQLLESGGGLVQPGGSLRLSCAASGFTFSWYKMMWVRQAPGKGLEWVSSIYPSGGWTNYADSVKGRFTISRDNSKNTLYLQMNSLRAEDTAVYYCTRGSPWGDDAFDIWGQGTMVTVSS
# VL: DIQMTQSPSSLSASVGDRVTLTCRASRTISFYLNWYQQKAGKAPELLIYGGSSLHSGVPSRFSGSGSGTDFSLTISNLQPEDIAVYYCQQSFSSPWTFGQGTKVEIK
# notes: HC as printed runs into CH1
# B18: M11-E05 (Fab, V domains shown)
# VH: EVQLLESGGGLVQPGGSLRLSCAASGFTFSWYTMGWVRQAPGKGLEWVSWIYFGGLTTYADSVKGRFTISRDNSKNTLYLQMNSLRAEDTAVYYCARLGGPLDAFDIWGQGTMVTVSS
# VL: DIQMTQSPSSLSASVGDTVTITCRTSQTINNYLNWYQQRPGEAPKVLIYATHTLESGVPSRFSGSGSGTDFTLTIGSLQPEDFATYYCQQSFAFPYTFGQGTKVEIT
# notes: HC as printed runs into CH1
# B19: M9-H03 (Fab, V domains shown)
# VH: EVQLLESGGGLVQPGGSLRLSCAASGFTFSWYSMGWVRQAPGKGLEWVSYIVPSGGYTMYADSVKGRFTISRDNSKNTLYLQMNSLRAEDTAVYYCARDPGVSYYYYGMDVWGQGTTVTVSS
# VL: QYELTQAPSVSVAPGQTASITCSGDKLGNRYTSWYQQKPGQSPVLVIFQDNKRPSGIPERFSGSNSGNTATLTISGTQAMDEADYYCQALDSNTYVFGTGTKVTVL
# notes: HC as printed runs into CH1
# B20: M10-D11 (Fab, V domains shown)
# VH: EVQLLESGGGLVQPGGSLRLSCAASGFTFSAYPMNWVRQAPGKGLEWVSRISSSGGNTSYADSVKGRFTISRDNSKNTLYLQMNSLRAEDTAVYYCALGYLGYWGQGTLVTVSS
# VL: not shown
# notes: HC as printed runs into CH1
# B21: M10-F09 (Fab, V domains shown)
# VH: EVQLLESGGGLVQPGGSLRLSCAASGFTFSNYDMMWVRQAPGKGLEWVSYISPSGGFTRYADSVKGRFTISRDNSKNTLYLQMNSLRAEDTATYYCAKDIYYYNWGPSHYFDSWGQGTLVTVSS
# VL: DIQMTQSPSSLSASVGDRVTITCRASQTIDDDLIWYQQKPGRAPKLLIYAASSLQSGVPSRFSGSGSGTDFTLTITSLQPEDFATYYCQQSYNIPRTFGQGTKLESK
# notes: HC as printed runs into CH1
# B22: M9-F09 (Fab, V domains shown)
# VH: EVQLLESGGGLVQPGGSLRLSCAASGFTFSSYPMGWVRQAPGKGLEWVSRISSSGGMTIYADSVKGRFTISRDNSKNTLYLQMNSLRAEDTAVYYCARDDWNVGMDVWGQGTTVTVSS
# VL: DIQMTQSPSSLSASVGDRVTITCRASQSISSYLNWYQQKPGKAPKLLIYAASSLQSGVPSKFSGSGSGTDYTLTISSLQPEDFATYYCQQTYTTPWTFGQGTKVEIK
# notes: HC as printed runs into CH1; (as printed for M28-E01)
# B23: M9-H02 (Fab, V domains shown)
# VH: EVQLLESGGGLVQPGGSLRLSCAASGFTFSAYMMIWVRQAPGKGLEWVSVIYPSGGVTMYADSVKGRFTISRDNSKNTLYLQMNSLRAEDTAVYYCARGTVGASDAFDIWGQGTMVTVSS
# VL: DIQMTQSPSSLSASVGDRVIITCRASRSIATYLNWYQQKPGKAPNLLIFGASTLQSGVPSRFSGSGSGTDFTLTISDLQPEDFATYYCQQSFSDPYTFGQGTNLEMK
# notes: HC as printed runs into CH1
# Biological target: T1, human plasma kallikrein (human, UniProt P03952 20-390; P03952 391-638)
# T1 construct: also called pKal; Human pKal
# T1 sequence (P03952 20-390, chain 1 of 2): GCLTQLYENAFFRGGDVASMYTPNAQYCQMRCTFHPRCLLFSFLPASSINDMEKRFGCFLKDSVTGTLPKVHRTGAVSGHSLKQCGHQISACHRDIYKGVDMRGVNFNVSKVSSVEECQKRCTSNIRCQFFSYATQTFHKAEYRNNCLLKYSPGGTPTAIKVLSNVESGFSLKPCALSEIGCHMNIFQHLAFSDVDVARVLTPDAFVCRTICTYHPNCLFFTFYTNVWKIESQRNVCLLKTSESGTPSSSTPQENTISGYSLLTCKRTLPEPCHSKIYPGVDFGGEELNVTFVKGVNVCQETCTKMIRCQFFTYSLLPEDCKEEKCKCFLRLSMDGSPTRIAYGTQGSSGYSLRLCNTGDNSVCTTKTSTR
# T1 sequence (P03952 391-638, chain 2 of 2): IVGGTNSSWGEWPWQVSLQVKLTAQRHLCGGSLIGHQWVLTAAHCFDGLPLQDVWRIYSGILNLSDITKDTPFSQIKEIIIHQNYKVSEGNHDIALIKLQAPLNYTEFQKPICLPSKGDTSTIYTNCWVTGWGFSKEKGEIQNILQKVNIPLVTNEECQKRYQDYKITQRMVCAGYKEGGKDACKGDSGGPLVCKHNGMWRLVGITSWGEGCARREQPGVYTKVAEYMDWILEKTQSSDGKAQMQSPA
# Assay: ELISA, biotinylated pKal signal over streptavidin background
# Description: Abbreviations used: “T/B” is the ELISA signal obtained using of the “target” (biotinylated plasma kallikrein) divided by the ELISA signal of the “background” (streptavidin); both of which were coated on microtiter plates, “nd” is not determined. The symbol “q” refers to the amber suppressible stop codon (TAG), which is translated as glutamine (Q) in strains of E. coli such as the TG1 cells that were used to express the Fab fragments.
row,Binder,ELISA (T/B)
1,B1,33.7 T/B
2,B2,7.8 T/B
3,B3,11.7 T/B
4,B4,18.8 T/B
5,B5,10.9 T/B
6,B6,4.8 T/B
7,B7,5.3 T/B
8,B8,43.2 T/B
9,B9,32.8 T/B
10,B10,25 T/B
11,B11,8.4 T/B
12,B12,14.1 T/B
13,B13,20.8 T/B
14,B14,7.1 T/B
15,B15,12.6 T/B
16,B16,16.1 T/B
17,B17,35.9 T/B
18,B18,41.4 T/B
19,B19,4.4 T/B
20,B20,6.4 T/B
21,B21,4.8 T/B
22,B22,7 T/B
23,B23,3.5 T/B
